Test results reported in article doi:10.1101/2021.08.20.457142.

B1: MKK6 D-site peptide / p38-alpha (MAPK14) L195A, full length (parent complex)
chain 1: SQSKGKKRNPGLKIPKEAFEQP
chain 2: MSQERPTFYRQELNKTVWEVPERYQNLSPVGSGAYGSVCAAFDTKTGHRVAVKKLSRPFQSIIHAKRTYRELRLLKHMKHENVIGLLDVFTPARSLEEFNDVYLVTHLMGADLNNIVKCQKLTDDHVQFLIYQILRGLKYIHSADIIHRDLKPSNLAVNEDCELKILDFGLARHTDDEMTGYVATRWYRAPEIMANWMHYNQTVDIWSVGCIMAELLTGRTLFPGTDHIDQLKLILRLVGTPGAELLKKISSESARNYIQSLAQMPKMNFANVFIGANPLAVDLLEKMLVLDSDKRITAAQALAHAYFAQYHDPDDEPVAEPYDQSFESRDFLIDEWKSLTYDEVISFVPPPLDQEEMES

Variants of: B1

Variant	screen value
chain 1 S3A, chain 1 N9A	1.3 Z-score of the enrichment rate within one screen of 711 sequences
chain 1 K7L	1.83 Z-score of the enrichment rate within one screen of 711 sequences
chain 1 P15C	4.38 Z-score of the enrichment rate within one screen of 711 sequences
chain 1 P10T	0.699 Z-score of the enrichment rate within one screen of 711 sequences
chain 1 K7A, chain 1 L12A	-1.2 Z-score of the enrichment rate within one screen of 711 sequences
chain 1 P10A, chain 1 P15A	0.87 Z-score of the enrichment rate within one screen of 711 sequences
chain 1 K7A, chain 1 K16A	0.0296 Z-score of the enrichment rate within one screen of 711 sequences
chain 1 K4E	0.242 Z-score of the enrichment rate within one screen of 711 sequences
chain 1 S3K	2.42 Z-score of the enrichment rate within one screen of 711 sequences
chain 1 K13T	0.352 Z-score of the enrichment rate within one screen of 711 sequences
chain 1 I14K	-0.966 Z-score of the enrichment rate within one screen of 711 sequences
chain 1 K6A, chain 1 K16A	0.354 Z-score of the enrichment rate within one screen of 711 sequences
chain 1 K13P	-0.836 Z-score of the enrichment rate within one screen of 711 sequences
chain 1 S3E	0.822 Z-score of the enrichment rate within one screen of 711 sequences
chain 1 K13W	0.592 Z-score of the enrichment rate within one screen of 711 sequences
chain 1 K4A, chain 1 K7A	-0.395 Z-score of the enrichment rate within one screen of 711 sequences
chain 1 G5A, chain 1 I14A	-1.03 Z-score of the enrichment rate within one screen of 711 sequences
chain 1 P10F	0.865 Z-score of the enrichment rate within one screen of 711 sequences
chain 1 G11K	2.23 Z-score of the enrichment rate within one screen of 711 sequences
chain 1 K4W	1.28 Z-score of the enrichment rate within one screen of 711 sequences
chain 1 P10A	0.621 Z-score of the enrichment rate within one screen of 711 sequences
chain 1 L12R	-1.21 Z-score of the enrichment rate within one screen of 711 sequences
chain 1 K16P	0.798 Z-score of the enrichment rate within one screen of 711 sequences
chain 1 K13R	1.63 Z-score of the enrichment rate within one screen of 711 sequences
chain 1 K13A, chain 1 P15A	-0.309 Z-score of the enrichment rate within one screen of 711 sequences

Variant	screen value
chain 1 N9A	1.56 Z-score of the enrichment rate within one screen of 711 sequences
chain 1 S3I	2 Z-score of the enrichment rate within one screen of 711 sequences
chain 1 L12A, chain 1 I14A	-1.27 Z-score of the enrichment rate within one screen of 711 sequences
chain 1 G11A, chain 1 P15A	1.79 Z-score of the enrichment rate within one screen of 711 sequences
chain 1 K16L	1.28 Z-score of the enrichment rate within one screen of 711 sequences
chain 1 S3A, chain 1 K4A	0.582 Z-score of the enrichment rate within one screen of 711 sequences
chain 1 K4A, chain 1 I14A	-1.18 Z-score of the enrichment rate within one screen of 711 sequences
chain 1 P10V	0.742 Z-score of the enrichment rate within one screen of 711 sequences
chain 1 S3W	2.4 Z-score of the enrichment rate within one screen of 711 sequences
chain 1 P10W	0.911 Z-score of the enrichment rate within one screen of 711 sequences
chain 1 I14H	-0.748 Z-score of the enrichment rate within one screen of 711 sequences
chain 1 N9A, chain 1 I14A	-0.573 Z-score of the enrichment rate within one screen of 711 sequences
chain 1 N9E	-0.389 Z-score of the enrichment rate within one screen of 711 sequences
chain 1 R8I	0.378 Z-score of the enrichment rate within one screen of 711 sequences
chain 1 K4N	0.364 Z-score of the enrichment rate within one screen of 711 sequences
chain 1 S3L	1.66 Z-score of the enrichment rate within one screen of 711 sequences
chain 1 L12E	-1.29 Z-score of the enrichment rate within one screen of 711 sequences
chain 1 I14D	-0.97 Z-score of the enrichment rate within one screen of 711 sequences
chain 1 K6A, chain 1 G11A	0.561 Z-score of the enrichment rate within one screen of 711 sequences
chain 1 K7A, chain 1 G11A	0.113 Z-score of the enrichment rate within one screen of 711 sequences
chain 1 G5A, chain 1 N9A	1.1 Z-score of the enrichment rate within one screen of 711 sequences
chain 1 G5H	1.94 Z-score of the enrichment rate within one screen of 711 sequences
chain 1 S3A, chain 1 G11A	0.988 Z-score of the enrichment rate within one screen of 711 sequences
chain 1 N9C	1.38 Z-score of the enrichment rate within one screen of 711 sequences
chain 1 S3F	1.62 Z-score of the enrichment rate within one screen of 711 sequences

Variant	screen value
chain 1 P10D	-0.469 Z-score of the enrichment rate within one screen of 711 sequences
chain 1 G11D	0.0949 Z-score of the enrichment rate within one screen of 711 sequences
chain 1 K4T	0.747 Z-score of the enrichment rate within one screen of 711 sequences
chain 1 K6N	0.746 Z-score of the enrichment rate within one screen of 711 sequences
chain 1 K6A, chain 1 R8A	-0.524 Z-score of the enrichment rate within one screen of 711 sequences
chain 1 K6A, chain 1 P10A	-0.354 Z-score of the enrichment rate within one screen of 711 sequences
chain 1 K4A, chain 1 R8A	-0.792 Z-score of the enrichment rate within one screen of 711 sequences
chain 1 K13H	-0.111 Z-score of the enrichment rate within one screen of 711 sequences
chain 1 K7E	-0.535 Z-score of the enrichment rate within one screen of 711 sequences
chain 1 I14L	3.12 Z-score of the enrichment rate within one screen of 711 sequences
chain 1 S3A, chain 1 K16A	0.893 Z-score of the enrichment rate within one screen of 711 sequences
chain 1 S3A, chain 1 L12A	-1.11 Z-score of the enrichment rate within one screen of 711 sequences
chain 1 K4M	0.845 Z-score of the enrichment rate within one screen of 711 sequences
chain 1 K16G	-0.443 Z-score of the enrichment rate within one screen of 711 sequences
chain 1 G11V	0.807 Z-score of the enrichment rate within one screen of 711 sequences
chain 1 I14E	-0.921 Z-score of the enrichment rate within one screen of 711 sequences
chain 1 N9V	0.914 Z-score of the enrichment rate within one screen of 711 sequences
chain 1 S3A, chain 1 K7A	0.46 Z-score of the enrichment rate within one screen of 711 sequences
chain 1 K4A, chain 1 L12A	-1.24 Z-score of the enrichment rate within one screen of 711 sequences
chain 1 K13E	-0.899 Z-score of the enrichment rate within one screen of 711 sequences
chain 1 P10A, chain 1 I14A	-0.954 Z-score of the enrichment rate within one screen of 711 sequences
chain 1 K4S	0.887 Z-score of the enrichment rate within one screen of 711 sequences
chain 1 I14F	-0.0574 Z-score of the enrichment rate within one screen of 711 sequences
chain 1 I14A	-0.785 Z-score of the enrichment rate within one screen of 711 sequences
chain 1 G11N	1.3 Z-score of the enrichment rate within one screen of 711 sequences
